Assay results taken from patent US20250195685A1 (CAPSTAN THERAPEUTICS, published 2025).
Numbering of substitutions follows the chain as printed. In names and notes the source's numbering stands.

B1: CBD1035 whole antibody, Fc-silenced human IgG1 (LALAPA) (antibody, V domains shown)
VH: QVQLVQSGAEVKKPGASVKISCKASRYTFTDYNLHWVRQAPGQGLEWIGFIYPYNGGTGYAQKFQGRATLTVDTSTSTAYMELSSLRSEDTAVYYCARDHRYNEGVSFDYWGQGTTLTVSS
VL: DIQLTQSPSSLSASVGDRATITCRASESVDGFGNSFMNWYQQKPGKAPKLLIYLASNLESGVPSRFSGSGSGTDFTLTISSVQPEDFATYYCQQNNEDPYTFGQGTKLEIKR
B2: CBD1033.37 disulfide-engineered F(ab') analog (IgG1-derived) (Fab, V domains shown)
VH: B1 VH with I20V, I48M, A68V, L70M, L117V
VL: B1 VL
notes: Engineered CH1-F174C / CK-S162C interchain disulfide; native disulfide removed; also called .37 design
B3: maleimide-PEG-biotin conjugated CBD1033.37 F(ab') (Fab, V domains shown)
VH: B1 VH with I20V, I48M, A68V, L70M, L117V
VL: B1 VL
modifications: maleimide-PEG11-biotin on CH C230 (sequential numbering, corresponding to C239 in Kabat numbering)
notes: Loaded on streptavidin sensors through the biotin; also called biotinylated Fab sample CBD1033.37
B4: CBD1043 (antibody, human IgG1, kappa, L234A L235A, V domains shown)
VH: B1 VH with I20V, A68V, L70I, V72A, T116L, L117V
VL: EIVLTQSPGTLSLSPGERATLSCRASESVDGFGNSFMNWYQQKPGQAPRLLIYLASNLESGVPARFSGSGSGTDFTLTISRLEPEDFAVYYCQQNNEDPYTFGQGTKVEIKR
notes: also called CBD1043- hIgG1LALAPA; h1017-H7/L5 whole antibody
B5: CBD1381 whole antibody (VH N55Q of CBD1033), Fc-silenced human IgG1 (antibody, V domains shown)
VH: B1 VH with I20V, I48M, N55Q, A68V, L70M, L117V
VL: B1 VL
B6: CBD1039 whole antibody, Fc-silenced human IgG1 (LALAPA) (antibody, V domains shown)
VH: B1 VH with T74Y
VL: B1 VL
B7: CBD1380 whole antibody (VH N55S of CBD1033), Fc-silenced human IgG1 (antibody, V domains shown)
VH: B1 VH with I20V, I48M, N55S, A68V, L70M, L117V
VL: B1 VL
B8: CBD1383 whole antibody (VH N55D of CBD1033, deamidation mimic), Fc-silenced human IgG1 (antibody, V domains shown)
VH: B1 VH with I20V, I48M, N55D, A68V, L70M, L117V
VL: B1 VL
notes: also called 100% deamidation mimic
B9: CBD1382 whole antibody (VH N55A of CBD1033), Fc-silenced human IgG1 (antibody, V domains shown)
VH: B1 VH with I20V, I48M, N55A, A68V, L70M, L117V
VL: B1 VL
B10: CBD1040 whole antibody, Fc-silenced human IgG1 (LALAPA) (antibody, V domains shown)
VH: B1 VH with T74Y
VL: B1 VL with G72R

Tests used:
insulin (Sigma) = molecular target: T1, insulin (Sigma); assay: polyreactive ELISA, insulin coated, 100 nM antibody
T1 construct: Antigen of the polyreactivity ELISA
T1 sequence (P01308 25-54, chain 1 of 2): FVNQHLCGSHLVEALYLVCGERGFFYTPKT
T1 sequence (P01308 90-110, chain 2 of 2): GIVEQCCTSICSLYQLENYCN
Method: Insulin ([…]; Sigma) and dsDNA ([…]; Sigma) were coated onto 96-well high-binding ELISA microplates (Corning) at 50 μL per well overnight at 4° C. Plates were blocked with PBS with 0.5% BSA (blocking buffer) at room temperature (RT) for 1 h, followed by three washes with PBST (PBS with 0.1% Tween-20). 50 μL of 100 nM antibody in blocking buffer was added to each well and incubated at RT for 1 h, followed by six washes with 100 μL of PBS. 50 μL of diluted anti-human IgG-horseradish peroxidase (HRP) conjugate (Jackson ImmunoResearch) was added to the wells and incubated for 1 h followed by another six washes. Finally, 50 μL of 3, 3′, 5, 5′-Tetramethylbenzidine (TMB) substrate (Fisher Scientific) was added to each well to develop the detection signal. The reactions were stopped by adding 50 μL of 2 M sulfuric acid to each well. The absorbance was measured at 450 nm using a multimode microplate reader. Ustekinumab as the control antibody with low polyreactivity and bococizumab as a highly polyreactive antibody control were also included in the polyreactive ELISA assessment.
The first assessment tested for low non-specific binding to dsDNA and insulin by ELISA. […] Thus, by this standard, none of the tested antibodies were polyreactive.

[1] = molecular target: T2, human CD8 on cells (CD8-overexpressing HEK293T cells, SupT1, HPB-ALL, human T cells, transfected HEK293 of … (human, UniProt P01732 22-235)); assay: flow cytometry on CD8-overexpressing HEK293T cells, non-linear fit of normalized gMFI
T2 construct: whole, on cells; also called cell surface CD8
T2 sequence (P01732 22-235): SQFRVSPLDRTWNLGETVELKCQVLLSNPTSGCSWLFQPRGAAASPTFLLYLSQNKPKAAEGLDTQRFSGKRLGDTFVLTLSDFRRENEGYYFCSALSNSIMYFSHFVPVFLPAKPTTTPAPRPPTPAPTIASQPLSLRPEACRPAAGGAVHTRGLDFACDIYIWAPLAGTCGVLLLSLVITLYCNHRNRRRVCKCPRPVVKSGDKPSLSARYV
Method: To obtain the results shown in FIG. 3A, that determined EC₅₀ values for antigen-specific binding, CD8-overexpressing HEK293T cells were dissociated in Versine solution (PBS buffer at pH 7.4 supplemented with 0.5 mM EDTA), and 2×10⁵ total cells were transferred to a V-bottom 96 well culture plate (Corning). Cells were washed twice with Cell Staining buffer (#420201, Biolegend). Each anti-CD8α antibody with human IgG1 isotype and Fc-silencing mutations L234A, L235A and P329A was diluted in four-fold antibody titration series from 100 μg/mL to 6.1 ng/ml into Cell Staining buffer. eFluor 780 Fixable Viability dye (eBioscience) was also included during antibody solutions at a 1:4000 dilution. Cells were stained with each diluted antibody solution for 30 minutes on ice. Cells were then washed three times with Cell Staining buffer and primary antibody binding was detected by staining with anti-human Fc BV421 conjugate antibody (#410704, Biolegend) at 1:100 dilution for 30 minutes on ice. After staining with the secondary detection antibody, cells were washed three times with Cell Staining buffer, fixed in FluoroFix buffer (Biolegend) and kept at 4° C. in the dark until analysis. Flow cytometry analysis on each sample was performed on an Agilent NovoCyte flow cytometer. Flow cytometry data was analyzed by Flowjo 10 (Becton, Dickinson & Company) to measure the geometric median fluorescence intensity (gMFI) of the on-cell binding from each antibody. The gMFI values were normalized with the gMFI measured in the sample stained with only the secondary detection antibody and plotted against the concentration of the added antibodies. The binding curves were constructed using the Graphpad Prism software, and EC₅₀ values were determined by non-linear curve fitting.

[2] = molecular target: T3, human CD8αα homodimer, recombinant protein (Acro Biosystems) (human, UniProt P01732 22-182); assay: BLI steady state, whole hIgG1-LALAPA antibody on CD8α-His (Ni-NTA sensor), 30 °C
T3 construct: also called CD8αα antigen; biotinylated CD8α recombinant protein (CDA-H82E3)
T3 sequence (P01732 22-182 limits assumed): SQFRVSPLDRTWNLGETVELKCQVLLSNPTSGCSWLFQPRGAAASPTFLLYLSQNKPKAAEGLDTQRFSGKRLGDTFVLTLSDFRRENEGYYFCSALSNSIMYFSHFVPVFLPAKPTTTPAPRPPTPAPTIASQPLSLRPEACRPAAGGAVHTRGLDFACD
Method: (§1) To assess affinity of whole antibodies, steady state analysis was used as the bivalent nature of both whole antibody and CD8α complicates kinetic analysis. 50 nM CD8α-His (that is, CD8α with a C-terminal oligohistidine tag; Acro) was immobilized on Ni-NTA sensor probes. Binding was analyzed with a three-fold antibody dilutions series: 60 nM, 20 nM, 6.67 nM, 2.22 nM, 0.74 nM, and 0.25 nM. The antigen-loaded sensors were incubated in the diluted solutions to capture the whole IgG antibody for 300 s to record the association phase. Sensors were incubated in the kinetic buffer for 900 s to record the dissociation phase. The spin speed was 1000 rpm for all steps except the antigen loading step which was 400 rpm to control density of the antigen. The temperature of the performed assays was at 30° C. during the association and dissociation phases. The sensor data were baseline subtracted and further analyzed in GatorOne software (version 2.10) to determine the equilibrium dissociation constants (KD) of the antibodies by fitting the signals of the steady states to the 1:1 binding model.

[3] = molecular target: T3, human CD8αα homodimer, recombinant …; assay: BLI kinetic assay, engineered F(ab') fragment
Method: (§2) The global fitting was performed with a 1:1 fitting model using GatorOne software as described below.
Biolayer interferometry kinetic assays were performed using a GatorBio Gator Plus BLI system. Kinetic buffer containing PBS plus 0.1% Tween 20 and 0.2% BSA was used for calculating the baseline. To measure the binding kinetics of anti-CD8α antibody fragment (Fab), streptavidin-immobilized SA-XT sensors (#160029, Gator Bio) were prehydrated in the kinetic buffer and loaded with […] biotinylated CD8α recombinant protein (CDA-H82E3, Acro Biosystems) at a spin speed of 400 rpm to a threshold response of 10 nm. The sensors were then incubated in the kinetic buffer for 300 s to acquire a baseline measurement prior to each association. […] The antigen-loaded sensors were incubated in the diluted solutions to capture Fab fragments for 300 s to record the association phase. Sensors were finally incubated in the kinetic buffer for 900 s to record the dissociation phase. The spin speed for all steps except the antigen loading step was 1000 rpm. The temperature of the performed assays was either 30° C. or 37° C. during the association and dissociation phases. Sensor data were baseline subtracted, and global curve fitting of the kinetic data from six different analyte concentrations at a 1:1 monovalent binding model was performed using GatorOne software (version v2.10) to determine kinetic rate constants (kₒₙ and koff) and equilibrium dissociation constants (KD) of the analyzed antibodies.

[4] = molecular target: T3, human CD8αα homodimer, recombinant …; assay: BLI kinetic sensorgram, 1:1 global fit
Method: as §2
(§3) To measure the binding kinetics of the biotin-conjugated Fab molecule, streptavidin-immobilized SA-XT sensors (#160029, Gator Bio) were prehydrated in the kinetic buffer and loaded with […] biotinylated Fab sample CBD1033.37 or CBD1033.24 to a threshold response of 10 nm. […] The binder-loaded sensors were incubated in the diluted solutions to capture the CD8α protein for 1200 s to record the association phase. Sensors were finally incubated in the kinetic buffer for another 1200 s to record the dissociation phase. The spin speed for all steps was 1000 rpm. The temperature of the performed assays were at 37° C. during the association and dissociation. The sensor data were baseline subtracted, and global curve fitting of the kinetic data from six different analyte concentrations at a 1:1 monovalent binding model was performed using the GatorOne software (version v2.10) to determine the kinetic rate constants (kₒₙ and koff) and equilibrium dissociation constants (KD) of the analyzed binder.

[5] = molecular target: T4, custom recombinant human CD8α mouse IgG2a Fc fusion protein (human; mouse, UniProt P01732 22-182, limits assumed); assay: BLI kinetics, biotin-conjugated F(ab') on SA-XT sensor, HuCD8a mouse Fc fusion as analyte, 37 °C
T4 construct: Custom protein; also called human CD8α mouse Fc fusion protein; not shown: mouse IgG2a Fc
T4 sequence (P01732 22-182 limits assumed): as above
Method: as §2, §3

[6] = molecular target: T4, custom recombinant human CD8α mouse …; assay: BLI kinetic sensorgram, 1:1 global fit, 37 °C
Method: as §2, §3

[7] = molecular target: T3, human CD8αα homodimer, recombinant …; assay: BLI steady state, whole hIgG1-LALAPA antibody on CD8α-His (Ni-NTA sensor), 30 °C; remark: listed apart in the source
Method: as §1

[8] = molecular target: T3, human CD8αα homodimer, recombinant …; assay: BLI steady state analysis of the data of FIG. 2G
Method: as §1

[9] = molecular target: T3, human CD8αα homodimer, recombinant …; assay: BLI, whole antibody, steady state dissociation constant (column head x10^-9M)
Method: as §1

[10] = molecular target: T3, human CD8αα homodimer, recombinant …; assay: BLI, whole antibody
[11] = molecular target: T3, human CD8αα homodimer, recombinant …; assay: BLI kinetic rate KD on whole antibodies

| Binder | polyreactivity ELISA score (insulin (Sigma)) | EC50 [1] [nM] | Kd [2] [nM] | Kd [9] [nM] | koff [10] [s⁻¹] | kon [10] [M⁻¹ s⁻¹] | also measured |
| --- | --- | --- | --- | --- | --- | --- | --- |
| B1 | 1 | 1.75 | 2.66 | – | – | – | – |
| B2 | – | – | – | – | – | – | Kd [3]: 4.01 nM; koff [3]: 6.28e-05 s⁻¹; kon [3]: 15600 M⁻¹ s⁻¹; Kd [4]: 4.01 nM; koff [4]: 6.28e-05 s⁻¹; kon [4]: 15600 M⁻¹ s⁻¹ |
| B3 | – | – | – | – | – | – | Kd [5]: 6.85 nM; koff [5]: 0.000144 s⁻¹; kon [5]: 20900 M⁻¹ s⁻¹; Kd [6]: 6.85 nM; koff [6]: 0.000144 s⁻¹; kon [6]: 20900 M⁻¹ s⁻¹ |
| B4 | – | – | – | – | – | – | Kd [7]: 3.91 nM; Kd [8]: 3.91 nM |
| B5 | – | – | – | 0.5 | 0.000795 | 1.91e+06 | – |
| B6 | 1 | 4.39 | 1.76 | – | – | – | – |
| B7 | – | – | – | 0.76 | 0.00192 | 1.86e+06 | – |
| B8 | – | – | – | 7.94 | 0.00303 | 1.1e+06 | fold reduction of affinity compared to CBD1033 [11]: ~5.5 fold |
| B9 | – | – | – | 0.88 | 0.00195 | 1.63e+06 | – |
| B10 | 1 | 2.54 | 4.06 | – | – | – | – |
